Measurements: US20250346673A1

What was measured:
[1] = biological target: cynomolgus BDCA2 (cynomolgus monkey); experiment: FACS on 293F-cynoBDCA2 cells; EC50 table under the plot, unit from the x axis (nM); fit of a flat control curve [continued) e.]
human BDCA2 (human) [2] = biological target: human BDCA2 (human) (UniProt Q8WTT0); experiment: FACS on CHOK1-hBDCA2 cells; EC50 table under the plot, unit from the x axis (nM); fit of a flat control curve
human BDCA2 (human) [3] = biological target: human BDCA2 (human) (UniProt Q8WTT0); experiment: FACS on CHOK1-hBDCA2 cells; EC50 table under the plot, unit from the x axis (nM); fit of a flat control curve [continued) e.]

Chain of cynomolgus BDCA2 (cynomolgus monkey) (chain, as listed by the source): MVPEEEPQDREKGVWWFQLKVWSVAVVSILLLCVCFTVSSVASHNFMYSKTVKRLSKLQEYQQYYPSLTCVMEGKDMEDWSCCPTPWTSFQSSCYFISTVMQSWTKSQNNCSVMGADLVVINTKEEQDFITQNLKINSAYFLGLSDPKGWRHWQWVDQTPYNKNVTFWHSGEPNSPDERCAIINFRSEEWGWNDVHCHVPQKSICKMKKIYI
Chain of human BDCA2 (human) (Q8WTT0 whole entry): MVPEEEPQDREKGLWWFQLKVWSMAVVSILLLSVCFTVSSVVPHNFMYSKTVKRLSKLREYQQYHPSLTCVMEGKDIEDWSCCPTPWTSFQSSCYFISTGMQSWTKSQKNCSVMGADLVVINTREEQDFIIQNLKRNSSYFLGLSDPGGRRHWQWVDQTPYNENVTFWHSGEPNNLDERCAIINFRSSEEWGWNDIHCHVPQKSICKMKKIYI

Row | EC50 [1] [nM] | EC50 (human BDCA2 (human) [2]) [nM] | EC50 (human BDCA2 (human) [3]) [nM] | Substance
1 | 21.8 | 61.3 |  | hIgG1 (antibody)
2 | 20.6 |  | 176000 | mIgG1 (antibody)
